Laboratory results taken from US20250320252A1 (Scripps Research, published 2025).
Where two headings read alike, the source gives them in different places. Bridge positions count the residues as written; N and C are the ends. Square brackets hold non-standard residues; d marks the D form. Ends that are not written are not given here. C20L5A = not defined here; Nle = CCCC[C@H](N)C(=O)O; L5A = not defined here; K4 = not defined here; K5 = not defined here; Aib = CC(C)(N)C(=O)O

B1: 7I, 10V, 27I, C(14-21) - C20L5A (peptide)
peptide: Y[Aib]EGTFISDVSIYCDKQAA[Aib]CFVNWLIAGGPSSGAPPPS-NH2
modifications: linker 14-21 via C20L5A; not fully specified; reading uncertain
B2: 6Y, 8N, 27I, C(17-24)-C20L5A (peptide)
peptide: Y[Aib]EGTYTNDYSIYLDKCAA[Aib]EFVCWLIAGGPSSGAPPPS-NH2
modifications: linker 17-24 via C20L5A; not fully specified; reading uncertain
B3: 7I, 10V, 27I, C(14-21) - L5A (peptide)
peptide: Y[Aib]EGTFISDVSIYCDKQAA[Aib]CFVNWLIAGGPSSGAPPPS-NH2
modifications: linker 14-21 via L5A; not fully specified; reading uncertain
B4: ZA-41 - K4 (peptide)
peptide: H-Y[Aib]EGTFHSDYDIYKDKQAA[Aib]KFVQWLLAGGPSSGAPPPS-NH2
modifications: bridge 14-21 via K4; reading uncertain
B5: 6Y, 27I, C(14-21)-C20L5A (peptide)
peptide: Y[Aib]EGTYTSDYSIYCDKQAA[Aib]CFVNWLIAGGPSSGAPPPS-NH2
modifications: linker 14-21 via C20L5A; not fully specified; reading uncertain
B6: ZA-42 - K5 (peptide)
peptide: H-Y[Aib]EGTFHSDYDIYKDKQAA[Nle]KFVAWLLAGGPSSGAPPPS-NH2
modifications: linker 14-21 via K5; not fully specified; reading uncertain
B7: C(17-24)-L5A (peptide)
peptide: Y[Aib]EGTFTSDYSIYLDKCAA[Aib]EFVCWLLAGGPSSGAPPPS-NH2
modifications: linker 17-24 via L5A; not fully specified; reading uncertain
B8: 27I, C(14-21)-L5A (peptide)
peptide: Y[Aib]EGTFTSDYSIYCDKQAA[Aib]CFVNWLIAGGPSSGAPPPS-NH2
modifications: linker 14-21 via L5A; not fully specified; reading uncertain
B9: C(17-24)-C20L5A (peptide)
peptide: Y[Aib]EGTFTSDYSIYLDKCAA[Aib]EFVCWLLAGGPSSGAPPPS-NH2
modifications: linker 17-24 via C20L5A; not fully specified; reading uncertain
B10: C(14-21)-C20L5A (peptide)
peptide: Y[Aib]EGTFTSDYSIYCDKQAA[Aib]CFVNWLLAGGPSSGAPPPS-NH2
modifications: linker 14-21 via C20L5A; reading uncertain
B11: mCLZ715 (peptide)
peptide: Y[Aib]EGTFTSDYSIYKDKQAA[Aib]KFVNWLLAGGPSSGAPPPS-NH2
modifications: bridge 14-21 via K5; reading uncertain
B12: ZA-42 - K4 (peptide)
peptide: H-Y[Aib]EGTFHSDYDIYKDKQAA[Nle]KFVAWLLAGGPSSGAPPPS-NH2
modifications: linker 14-21 via K4; not fully specified; reading uncertain
B13: ZA-41 - K5 (peptide)
peptide: H-Y[Aib]EGTFHSDYDIYKDKQAA[Aib]KFVQWLLAGGPSSGAPPPS-NH2
modifications: bridge 14-21 via K5; reading uncertain
B14: 6Y, 27I, C(17-24)-C20L5A (peptide)
peptide: Y[Aib]EGTYTSDYSIYLDKCAA[Aib]EFVCWLIAGGPSSGAPPPS-NH2
modifications: linker 17-24 via C20L5A; not fully specified; reading uncertain
B15: 19Q, 21A, 27I, 29Q, C(17-24) - C20L5A (peptide)
peptide: Y[Aib]EGTFTSDYSIYLDKCAQ[Aib]AFVCWLIAQGPSSGAPPPS-NH2
modifications: linker 17-24 via C20L5A; not fully specified; reading uncertain
B16: mCMV266 (27I, C(14-21)-C20L5A) (peptide)
peptide: Y[Aib]EGTFTSDYSIYCDKQAA[Aib]CFVNWLIAGGPSSGAPPPS-NH2
modifications: linker 14-21 via C20L5A; not fully specified; reading uncertain
B17: ZA-43 - K4 (peptide)
peptide: H-Y[Aib]EGTFT[dS]DY[dS]IYKDKQAA[Nle]KFVAWLLAGGPSSGAPPPS-NH2
modifications: linker 14-21 via K4; not fully specified; reading uncertain
B18: mCMC759 (C(14-21)-L5A) (peptide)
peptide: Y[Aib]EGTFTSDYSIYCDKQAA[Aib]CFVNWLLAGGPSSGAPPPS-NH2
modifications: linker 14-21 via L5A; not fully specified; reading uncertain
B19: ZA-43 - K5 (peptide)
peptide: H-Y[Aib]EGTFT[dS]DY[dS]IYKDKQAA[Nle]KFVAWLLAGGPSSGAPPPS-NH2
modifications: linker 14-21 via K5; not fully specified; reading uncertain

Columns and labels:
Assay in all cases: cell-based or functional assay
human GIP receptor [1] = molecular target: T1, human GIP receptor (human, UniProt P48546 22-466)
T1 sequence (looked up): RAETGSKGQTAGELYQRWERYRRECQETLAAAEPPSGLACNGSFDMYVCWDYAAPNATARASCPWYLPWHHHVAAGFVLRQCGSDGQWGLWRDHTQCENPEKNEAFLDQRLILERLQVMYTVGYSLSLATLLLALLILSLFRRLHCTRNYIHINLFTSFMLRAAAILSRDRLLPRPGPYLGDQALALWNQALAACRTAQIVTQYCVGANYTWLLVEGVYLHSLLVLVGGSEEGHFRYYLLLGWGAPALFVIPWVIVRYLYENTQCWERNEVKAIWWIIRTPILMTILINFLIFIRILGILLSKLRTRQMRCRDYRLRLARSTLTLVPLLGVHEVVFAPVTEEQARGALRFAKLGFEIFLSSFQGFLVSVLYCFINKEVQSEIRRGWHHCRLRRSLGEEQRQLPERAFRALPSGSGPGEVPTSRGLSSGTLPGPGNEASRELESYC

human GLP-1 receptor [2] = molecular target: T2, human GLP-1 receptor (human, UniProt P43220 24-463)
human GIP receptor [3] = molecular target: T1, human GIP receptor; remark: listed apart in the source
human GLP-1 receptor [4] = molecular target: T2, human GLP-1 receptor; remark: listed apart in the source
human GIP receptor [5] = molecular target: T1, human GIP receptor; remark: listed apart in the source
human GLP-1 receptor [6] = molecular target: T2, human GLP-1 receptor; remark: listed apart in the source
human GIP receptor [7] = molecular target: T1, human GIP receptor; remark: listed apart in the source
human GLP-1 receptor [8] = molecular target: T2, human GLP-1 receptor; remark: listed apart in the source

Row | Binder | EC50 [nM] of receptor-mediated cAMP synthesis (human GIP receptor [1]) [nM] | EC50 of receptor-mediated cAMP synthesis, GIPR (nM), 02/19 (human GIP receptor [3]) [nM] | EC50 of receptor-mediated cAMP synthesis, GIPR (nM), 03/26 (human GIP receptor [3]) [nM] | EC50 of receptor-mediated cAMP synthesis, GIPR (nM), average (human GIP receptor [3]) [nM] | EC50 [nM] of receptor-mediated cAMP synthesis (human GIP receptor [5]) [nM] | EC50 [nM] of receptor-mediated cAMP synthesis (human GLP-1 receptor [6]) [nM] | also measured
1 | B1 | 303 |  |  |  |  |  | EC50 [nM] of receptor-mediated cAMP synthesis (human GLP-1 receptor [2]): ~13700 nM
2 | B2 |  | 2.48 | 3.29 | 2.88 |  |  | EC50 of receptor-mediated cAMP synthesis, GLP1R (nM), 02/19 (human GLP-1 receptor [4]): 0.06 nM; EC50 of receptor-mediated cAMP synthesis, GLP1R (nM), 3/25 (human GLP-1 receptor [4]): 0.11 nM; EC50 of receptor-mediated cAMP synthesis, GLP1R (nM), 03/26 (human GLP-1 receptor [4]): 0.07 nM; EC50 of receptor-mediated cAMP synthesis, GLP1R (nM), average (human GLP-1 receptor [4]): 0.08 nM
3 | B3 | 12.6 |  |  |  |  |  | EC50 [nM] of receptor-mediated cAMP synthesis (human GLP-1 receptor [2]): 83.9 nM
4 | B4 |  |  |  |  | 5.31 | 13.8 | 
5 | B5 |  | 0.5 | 0.6 | 0.56 |  |  | EC50 of receptor-mediated cAMP synthesis, GIPR (nM), 03/25 (human GIP receptor [3]): 0.58 nM; EC50 of receptor-mediated cAMP synthesis, GLP1R (nM), 02/19 (human GLP-1 receptor [4]): 0.04 nM; EC50 of receptor-mediated cAMP synthesis, GLP1R (nM), 3/25 (human GLP-1 receptor [4]): 0.07 nM; EC50 of receptor-mediated cAMP synthesis, GLP1R (nM), 03/26 (human GLP-1 receptor [4]): 0.07 nM; EC50 of receptor-mediated cAMP synthesis, GLP1R (nM), average (human GLP-1 receptor [4]): 0.06 nM
6 | B6 |  |  |  |  | 303 | ~13700 | 
7 | B7 |  |  |  |  |  |  | EC50 [nM] of receptor-mediated cAMP synthesis (human GIP receptor [7]): 0.05 nM; EC50 [nM] of receptor-mediated cAMP synthesis (human GLP-1 receptor [8]): 0.11 nM
8 | B8 | 0.03 |  |  |  |  |  | EC50 [nM] of receptor-mediated cAMP synthesis (human GLP-1 receptor [2]): 0.04 nM
9 | B9 |  | 0.04 | 0.03 | 0.03 |  |  | EC50 of receptor-mediated cAMP synthesis, GIPR (nM), 03/25 (human GIP receptor [3]): 0.02 nM; EC50 of receptor-mediated cAMP synthesis, GLP1R (nM), 02/19 (human GLP-1 receptor [4]): 0.07 nM; EC50 of receptor-mediated cAMP synthesis, GLP1R (nM), 3/25 (human GLP-1 receptor [4]): 0.1 nM; EC50 [nM] of receptor-mediated cAMP synthesis (human GIP receptor [7]): 0.05 nM; EC50 [nM] of receptor-mediated cAMP synthesis (human GLP-1 receptor [8]): 0.11 nM
10 | B10 | 0.05 | 0.07 | 0.04 | 0.05 |  |  | EC50 of receptor-mediated cAMP synthesis, GIPR (nM), 03/25 (human GIP receptor [3]): 0.04 nM
11 | B11 |  |  |  |  | 0.02 | 0.02 | 
12 | B12 |  |  |  |  | 20.4 | 18.8 | 
13 | B13 |  |  |  |  | 12.6 | 83.9 | 
14 | B14 |  | 0.27 | 0.25 | 0.26 |  |  | EC50 of receptor-mediated cAMP synthesis, GIPR (nM), 03/25 (human GIP receptor [3]): 0.27 nM; EC50 of receptor-mediated cAMP synthesis, GLP1R (nM), 02/19 (human GLP-1 receptor [4]): 0.05 nM; EC50 of receptor-mediated cAMP synthesis, GLP1R (nM), 3/25 (human GLP-1 receptor [4]): 0.07 nM; EC50 of receptor-mediated cAMP synthesis, GLP1R (nM), 03/26 (human GLP-1 receptor [4]): 0.06 nM; EC50 of receptor-mediated cAMP synthesis, GLP1R (nM), average (human GLP-1 receptor [4]): 0.06 nM
15 | B15 |  |  |  |  |  |  | EC50 [nM] of receptor-mediated cAMP synthesis (human GIP receptor [7]): 0.02 nM
16 | B16 | 0.07 | 0.08 | 0.06 | 0.07 |  |  | EC50 of receptor-mediated cAMP synthesis, GIPR (nM), 03/25 (human GIP receptor [3]): 0.06 nM; EC50 of receptor-mediated cAMP synthesis, GLP1R (nM), 02/19 (human GLP-1 receptor [4]): 0.03 nM; EC50 of receptor-mediated cAMP synthesis, GLP1R (nM), 3/25 (human GLP-1 receptor [4]): 0.05 nM; EC50 of receptor-mediated cAMP synthesis, GLP1R (nM), 03/26 (human GLP-1 receptor [4]): 0.06 nM; EC50 of receptor-mediated cAMP synthesis, GLP1R (nM), average (human GLP-1 receptor [4]): 0.05 nM; EC50 [nM] of receptor-mediated cAMP synthesis (human GLP-1 receptor [2]): 0.05 nM
17 | B17 |  |  |  |  | 11.3 | 1.32 | 
18 | B18 | 0.03 |  |  |  |  |  | EC50 [nM] of receptor-mediated cAMP synthesis (human GIP receptor [7]): 0.03 nM
19 | B19 |  |  |  |  | 15.7 | 3.74 | 
